Patent publication EP3632462A1

Assays:
[1] = molecular target: IgG1-005-E345R/E430G/Y436I/S440K (human); experiment: HP-SEC in PBS pH 7.4, equimolar mixture of the two antibodies
[2] = molecular target: IgG1-005-E345R/E430G/S440K (human); experiment: as above
[3] = molecular target: IgG1-005-E345R/E430G/S440Y (human); experiment: HP-SEC with multiple angle light scattering (MALS), self-association
C1q (human) = C1q (human) (UniProt P02745); experiment: ELISA: antibody dilution series coated, 3% pooled human serum as source of C1q, anti-C1q detection
[4] = molecular target: Protein A (Staphylococcus aureus) (UniProt P38507); experiment: apparent IgG concentration on Octet QK protein A sensortips against an IgG standard curve; A280 gave 2905 µg/ml
[5] = molecular target: IgG1-005-E345R/E430G/S440Y (human); experiment: dynamic light scattering, 2.86 mg/mL in PBS pH 7.4, self-association
[6] = molecular target: FcyRIIIa receptor, V158 (high affinity) variant (UniProt P08637); experiment: cell-based or functional assay
[7] = molecular target: Protein A column (HiTrap MabSelectSuRe); experiment: 1.0 mL HiTrap MabSelectSuRe column, pH 5.0 against neutral pH
[8] = molecular target: Protein A column (HiTrap MabSelectSuRe); experiment: saturated 1.0 mL HiTrap MabSelectSuRe column loaded at neutral pH (hexamerization allowed), A280 of the dialyzed eluate
[9] = molecular target: Protein A column (HiTrap MabSelectSuRe); experiment: saturated 1.0 mL HiTrap MabSelectSuRe column loaded at pH 5.0 (antibody monomeric), A280 of the dialyzed eluate
[10] = molecular target: Protein A (Staphylococcus aureus) (UniProt P38507); experiment: ratio of the concentrations by Octet protein A and by A280

Sequence of FcyRIIIa receptor, V158 (high affinity) variant (P08637 other isoform, or with tags, fused parts or gaps mutant limits assumed): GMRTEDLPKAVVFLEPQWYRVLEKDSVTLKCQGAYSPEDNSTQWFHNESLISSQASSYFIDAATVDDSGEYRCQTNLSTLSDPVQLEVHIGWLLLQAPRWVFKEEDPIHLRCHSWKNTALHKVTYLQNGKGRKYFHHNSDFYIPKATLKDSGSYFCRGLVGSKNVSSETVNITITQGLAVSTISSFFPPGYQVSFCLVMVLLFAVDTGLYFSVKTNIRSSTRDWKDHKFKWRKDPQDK
Sequence of C1q (human) (P02745 23-245 limits assumed, chain 1 of 3): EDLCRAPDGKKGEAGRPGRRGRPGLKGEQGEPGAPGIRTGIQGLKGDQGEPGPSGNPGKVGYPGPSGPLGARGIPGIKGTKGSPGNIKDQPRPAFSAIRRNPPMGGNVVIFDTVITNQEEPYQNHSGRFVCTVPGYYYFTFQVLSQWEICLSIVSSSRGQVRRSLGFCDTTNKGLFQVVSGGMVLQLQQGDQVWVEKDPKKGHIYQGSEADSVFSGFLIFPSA
Sequence of C1q (human) (P02746 28-253 limits assumed, chain 2 of 3, further chain): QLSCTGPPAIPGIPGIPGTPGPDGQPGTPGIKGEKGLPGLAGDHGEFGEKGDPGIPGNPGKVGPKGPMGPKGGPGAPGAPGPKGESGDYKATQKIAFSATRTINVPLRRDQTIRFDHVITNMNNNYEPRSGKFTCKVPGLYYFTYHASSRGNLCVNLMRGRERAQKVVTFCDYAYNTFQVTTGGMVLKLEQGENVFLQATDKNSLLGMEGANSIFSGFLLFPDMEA
Sequence of C1q (human) (P02747 29-245 limits assumed, chain 3 of 3, further chain): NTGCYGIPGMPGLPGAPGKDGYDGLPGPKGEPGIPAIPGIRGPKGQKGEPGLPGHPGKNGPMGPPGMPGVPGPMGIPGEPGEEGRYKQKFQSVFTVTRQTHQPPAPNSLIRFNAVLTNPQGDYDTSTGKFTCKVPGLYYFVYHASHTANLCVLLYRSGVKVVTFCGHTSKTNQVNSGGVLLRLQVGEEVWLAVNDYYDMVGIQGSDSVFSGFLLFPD

Substance	multimers (HP-SEC) [1] [%]	multimers (HP-SEC) [2] [%]	apparent average MW of the multimeric peak [3] [kDa]	monomeric subunits per complex (monomeric subunits) [3]	EC50 (C1q (human)) [µg/mL]	Octet-Protein A [4] [µg/mL]	apparent MW in solution [5] [kDa]	monomeric subunits per complex (monomeric subunits) [5]	EC50 (ng/mL), ADCC reporter assay with Raji target cells [6] [ng/mL]	Maximal signal (RLU), ADCC reporter assay with Raji target cells [6] [RLU]	increase of protein yield, binding at pH 5.0 against neutral pH [7] [%]	yield of Protein A purification at 1.0 mL scale [8] [mg]	yield of Protein A purification at 1.0 mL scale [9] [mg]	A280/Protein A x 100 (%) [10] [%]
IgG1-005-E345R/E430G/K439E/S440Y (antibody)	93	65	–	–	–	–	–	–	–	–	–	–	–	–
IgG1-005-E345R/E430G/S440Y (antibody)	–	–	772	5.4	0.52	2050	876	6.17	36	394000	36	21.4	29.1	71
